In patent publication US20060234343A1 (published 2006):

Molecular target: T1, EGFR501Fcflag (ErbB1501.Fc fusion protein homodimer) (human, UniProt P00533 25-525)
T1 construct: Captured from 293T supernatant on protein G coated wells; also called truncated form of the extracellular domain of the EGF receptor, expressed as an Fc fusion homodimer; not shown: spacer peptide N-terminal of the Fc; human IgG1 Fc region (from a genomic fragment)
Assay: Eu-EGF displacement by unlabelled EGF from the Fc fusion homodimer captured on protein G; the reference value is from the literature
Protocol: Ligand binding assays. The wells of a 96-well Lumitrac 600 plate (Greiner) were coated with protein G (2 ug/ml in 10 mM sodium citrate buffer, pH 9.6; Sigma). […] After incubation at room temperature, wells were aspirated, washed in TBS plus 0.05% Tween-20, and Enhancement Solution (Perkin-Elmer) added to each well for 20 minutes.

B1: EGF (species not stated) (ligand)
chain: NSYPGCPSSYDGYCLNGGVCMHIESLDSYTCNCVIGYSGDRCQTRDLRWWELR
modifications: In the FIG. 8 assay the trace is EGF mono-labelled with a europium chelate (Wallac); site not stated. The EGF in the ultracentrifuge is unlabelled.
notes: Kept apart from hEGF and mEGF because these experiments say only EGF; the two experiments may have used different EGF; also called unlabelled EGF; Eu-EGF (Wallac)
fold higher affinity than that reported for the full-length ErbB1 ectodomain-Fc fusion protein: 10 fold
